# Measured values published in the supplement of paper PMC7125110.
# ± gives the standard error. For some assays here: This sample holds only a part of the variants without activity.
# B1: glmS ribozyme (parent)
# chain: AUAAAAGCGCCAGAACUACAGAAAUGUAGUUGACGAGGAGGAGGUUUAUCGAAUUUUCGGCGGAUGCCUCCAAA
# Legend:
# Conditions in all cases: with glucosamine-6-phosphate
# glucosamine-6-phosphate [1] = variants of: B1; experiment: kcat; higher = faster cleavage; RNA array
# In short: (§1)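 A hybridised Cy3 probe tracked barcoded ribozyme variants, transcribed in situ by E. coli RNA polymerase on sequenced MiSeq chips, at 37 °C. The variants received 40 μM to 10 mM glucosamine-6-phosphate in HEPES/KCl/Mg(OAc)2 buffer. kobs came from decay fits and kcat and KM from weighted Michaelis–Menten fits.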
# glucosamine-6-phosphate [2] = variants of: B1; experiment: KM; higher = weaker cofactor use; RNA array
# In short: as §1
# glucosamine-6-phosphate [3] = variants of: B1; experiment: self-cleavage kobs at 40 uM GlcN6P; higher = faster cleavage; RNA array
# In short: as §1
# glucosamine-6-phosphate [4] = variants of: B1; experiment: self-cleavage kobs at 160 uM GlcN6P; higher = faster cleavage; RNA array
# In short: as §1
# glucosamine-6-phosphate [5] = variants of: B1; experiment: self-cleavage kobs at 640 uM GlcN6P; higher = faster cleavage; RNA array
# In short: as §1
# glucosamine-6-phosphate [6] = variants of: B1; experiment: self-cleavage kobs at 2500 uM GlcN6P; higher = faster cleavage; RNA array
# In short: as §1
# glucosamine-6-phosphate [7] = variants of: B1; experiment: self-cleavage kobs at 10000 uM GlcN6P; higher = faster cleavage; RNA array
# In short: as §1
Variant,kcat (glucosamine-6-phosphate [1]) [s⁻¹],KM (glucosamine-6-phosphate [2]) [µM],self-cleavage kobs at 40 uM GlcN6P (glucosamine-6-phosphate [3]) [s⁻¹],self-cleavage kobs at 160 uM GlcN6P (glucosamine-6-phosphate [4]) [s⁻¹],self-cleavage kobs at 640 uM GlcN6P (glucosamine-6-phosphate [5]) [s⁻¹],self-cleavage kobs at 2500 uM GlcN6P (glucosamine-6-phosphate [6]) [s⁻¹],self-cleavage kobs at 10000 uM GlcN6P (glucosamine-6-phosphate [7]) [s⁻¹]
G40U U47A,0.00153 ± 0.00048,1680 ± 730,6.16e-05 ± 2.8e-05,0.000114 ± 2.9e-05,0.000565 ± 0.0002,0.00134 ± 0.00045,0.00115 ± 0.00037
G38A C67A,< 1e-05,,< 1e-05,,,,
G38U U65A,< 1e-05,,,< 1e-05,,,
G37U A64C,< 1e-05,,< 1e-05,,,,
G41A U47G,0.00145 ± 0.00012,3540 ± 470,,6.46e-05 ± 2.1e-05,0.00021 ± 4e-05,0.000656 ± 0.00011,0.00104 ± 0.00017
G37C C68U,1.59e-05 ± 1.1e-06,,< 1e-05,,,,
G37U C50U C70U,3.99e-05 ± 1.4e-05,,,,,,
A33C C50A,< 1e-05,,,,,,
A33U G51A,< 1e-05,394 ± 130,< 1e-05,,,,
G35A U49C,< 1e-05,,,,< 1e-05,,< 1e-05
A33U G37U,< 1e-05,,,< 1e-05,,,
C34G G38U,< 1e-05,,,< 1e-05,,,
A33G C50A,1.1e-05 ± 2.3e-06,,,,,,
G37U C61U,< 1e-05,,,,,,
A39U G41C,2.16e-05 ± 4.5e-07,1200 ± 150,< 1e-05,,,,1.93e-05 ± 7.7e-06
G40U U45A,0.0022 ± 0.00057,1030 ± 420,8.3e-05 ± 1.1e-05,0.000265 ± 4.2e-05,0.00081 ± 0.0001,0.00235 ± 0.00023,0.00154 ± 0.00024
G37U U69C,1.14e-05 ± 5.4e-06,,,< 1e-05,,,< 1e-05
A39G G43U,0.000168 ± 1e-05,1170 ± 240,,,5.98e-05 ± 1.8e-05,0.000119 ± 3.3e-05,0.000149 ± 2.2e-05
G37U U46G,< 1e-05,,,,< 1e-05,,
A33G A36C,1.58e-05 ± 7.1e-06,,< 1e-05,< 1e-05,< 1e-05,,< 1e-05

Variant,kcat (glucosamine-6-phosphate [1]) [s⁻¹],KM (glucosamine-6-phosphate [2]) [µM],self-cleavage kobs at 40 uM GlcN6P (glucosamine-6-phosphate [3]) [s⁻¹],self-cleavage kobs at 160 uM GlcN6P (glucosamine-6-phosphate [4]) [s⁻¹],self-cleavage kobs at 640 uM GlcN6P (glucosamine-6-phosphate [5]) [s⁻¹],self-cleavage kobs at 2500 uM GlcN6P (glucosamine-6-phosphate [6]) [s⁻¹],self-cleavage kobs at 10000 uM GlcN6P (glucosamine-6-phosphate [7]) [s⁻¹]
G40C A48U,0.000238 ± 7.3e-05,,< 1e-05,< 1e-05,,,5.01e-05 ± 8.4e-06
A39C U54C,0.00666 ± 0.0019,2400 ± 1100,0.000105 ± 2.5e-05,,0.00125 ± 0.0003,0.00481 ± 0.00084,0.00475 ± 0.00095
A39C U54A,0.00479 ± 0.0015,1410 ± 630,0.000143 ± 4.1e-05,0.000483 ± 0.00013,0.00157 ± 0.00028,0.00219 ± 0.00068,0.00615 ± 0.0015
G35U C67G,1.19e-05 ± 2.3e-06,,,,,< 1e-05,
G37C U47G U69G,7.04e-05 ± 2.8e-05,,,7.9e-05 ± 2.3e-05,5.97e-05 ± 2e-05,0.000138 ± 4.1e-05,
A36G A64G,2.02e-05 ± 1.1e-06,,< 1e-05,< 1e-05,,,
A39G C68A,2.73e-05 ± 9.4e-06,,,,,,
G37A A39U,0.00167 ± 0.00028,3280 ± 870,,6.13e-05 ± 1.5e-05,0.00028 ± 4e-05,0.000838 ± 9.2e-05,0.00116 ± 0.00015
A39U U57C,0.00022 ± 2.2e-05,9720 ± 1500,,,,4.56e-05 ± 8.7e-06,0.000111 ± 2.2e-05
A33C U54G,0.00057 ± 0.00014,,,8.91e-05 ± 2.6e-05,8.56e-05 ± 1.7e-05,0.000325 ± 3.8e-05,0.00043 ± 4.3e-05
G38U U55G,< 1e-05,,,< 1e-05,,,
A39G A64U,0.000215 ± 3.3e-05,3440 ± 950,< 1e-05,,3.77e-05 ± 1.6e-05,8.33e-05 ± 2.5e-05,0.000168 ± 5.5e-05
A39G A64C,0.000357 ± 5.4e-05,2860 ± 950,,,5.91e-05 ± 2.4e-05,0.000202 ± 5.3e-05,0.000267 ± 5.3e-05
G40A U46A,0.00064 ± 0.00019,,,,0.000254 ± 5.4e-05,0.000422 ± 9.6e-05,0.000495 ± 9.6e-05
A39G U54A,0.0133 ± 0.0029,282 ± 100,0.00173 ± 0.00037,,0.00823 ± 0.0019,,0.018 ± 0.0076
G40U U46C,0.00175 ± 0.00024,2420 ± 530,4.23e-05 ± 1.1e-05,9.14e-05 ± 1.9e-05,0.000365 ± 5e-05,0.000971 ± 0.00014,0.00137 ± 0.00016
A39G C70U C71U,0.000401 ± 9.5e-05,,0.000107 ± 2.7e-05,0.000403 ± 0.00018,0.000383 ± 8.4e-05,0.000283 ± 8.9e-05,0.000785 ± 0.00024
A36C U55A,< 1e-05,,,< 1e-05,,,
G38C C67A,< 1e-05,,< 1e-05,< 1e-05,,,
